Assay results taken from WO2016171242A1 (dated 2016).

What was measured:
Experiment in all cases: flow cytometry on transfected 293F cells
[1] = target: T1, human EPHB4 without signal sequence, FLAG-tagged, expressed from pFLAG-EPHB4 (human, UniProt P54760 16-987)
T1 construct: not shown: FLAG tag supplied by the vector pFLAG-GW
T1 sequence: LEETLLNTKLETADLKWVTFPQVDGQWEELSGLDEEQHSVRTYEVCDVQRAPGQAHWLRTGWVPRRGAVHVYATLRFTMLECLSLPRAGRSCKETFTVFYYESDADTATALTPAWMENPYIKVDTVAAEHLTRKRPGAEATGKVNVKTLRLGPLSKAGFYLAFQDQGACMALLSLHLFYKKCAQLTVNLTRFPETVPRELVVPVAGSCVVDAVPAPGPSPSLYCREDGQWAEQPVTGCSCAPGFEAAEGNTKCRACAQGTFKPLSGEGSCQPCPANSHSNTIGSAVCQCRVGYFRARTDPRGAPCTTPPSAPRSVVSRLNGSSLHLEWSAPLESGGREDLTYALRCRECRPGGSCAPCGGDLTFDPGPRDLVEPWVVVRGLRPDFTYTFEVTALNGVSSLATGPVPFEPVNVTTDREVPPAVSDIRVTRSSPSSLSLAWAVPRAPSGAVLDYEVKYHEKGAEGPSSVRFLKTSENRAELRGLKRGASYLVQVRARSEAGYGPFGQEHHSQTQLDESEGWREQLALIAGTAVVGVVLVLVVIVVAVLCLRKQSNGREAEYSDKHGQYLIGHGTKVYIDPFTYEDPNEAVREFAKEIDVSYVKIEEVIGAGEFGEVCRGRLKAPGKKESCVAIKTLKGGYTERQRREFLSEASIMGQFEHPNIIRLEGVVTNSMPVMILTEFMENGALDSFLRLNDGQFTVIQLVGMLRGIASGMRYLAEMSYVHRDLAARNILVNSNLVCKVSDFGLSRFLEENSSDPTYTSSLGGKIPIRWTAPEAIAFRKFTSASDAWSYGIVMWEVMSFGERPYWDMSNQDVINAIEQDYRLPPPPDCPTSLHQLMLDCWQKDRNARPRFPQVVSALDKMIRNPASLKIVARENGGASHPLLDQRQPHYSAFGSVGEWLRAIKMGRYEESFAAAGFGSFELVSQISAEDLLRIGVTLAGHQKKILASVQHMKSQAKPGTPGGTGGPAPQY

[2] = target: T2, human PTPRS isoform 2 without signal sequence, FLAG-tagged, expressed from pFLAG-PTPRS-2 (human, UniProt Q13332 30-1948)
T2 construct: not shown: FLAG tag supplied by the vector pFLAG-GW

[3] = target: T3, human PTPRF isoform 2 without signal sequence, FLAG-tagged, expressed from pFLAG-PTPRF-2 (human, UniProt P10586 30-1907)
T3 construct: not shown: FLAG tag supplied by the vector pFLAG-GW

[4] = target: T4, human EPHA3 without signal sequence, FLAG-tagged, expressed from pFLAG-EPHA3 (human, UniProt P29320 21-983)
T4 construct: not shown: FLAG tag supplied by the vector pFLAG-GW
T4 sequence: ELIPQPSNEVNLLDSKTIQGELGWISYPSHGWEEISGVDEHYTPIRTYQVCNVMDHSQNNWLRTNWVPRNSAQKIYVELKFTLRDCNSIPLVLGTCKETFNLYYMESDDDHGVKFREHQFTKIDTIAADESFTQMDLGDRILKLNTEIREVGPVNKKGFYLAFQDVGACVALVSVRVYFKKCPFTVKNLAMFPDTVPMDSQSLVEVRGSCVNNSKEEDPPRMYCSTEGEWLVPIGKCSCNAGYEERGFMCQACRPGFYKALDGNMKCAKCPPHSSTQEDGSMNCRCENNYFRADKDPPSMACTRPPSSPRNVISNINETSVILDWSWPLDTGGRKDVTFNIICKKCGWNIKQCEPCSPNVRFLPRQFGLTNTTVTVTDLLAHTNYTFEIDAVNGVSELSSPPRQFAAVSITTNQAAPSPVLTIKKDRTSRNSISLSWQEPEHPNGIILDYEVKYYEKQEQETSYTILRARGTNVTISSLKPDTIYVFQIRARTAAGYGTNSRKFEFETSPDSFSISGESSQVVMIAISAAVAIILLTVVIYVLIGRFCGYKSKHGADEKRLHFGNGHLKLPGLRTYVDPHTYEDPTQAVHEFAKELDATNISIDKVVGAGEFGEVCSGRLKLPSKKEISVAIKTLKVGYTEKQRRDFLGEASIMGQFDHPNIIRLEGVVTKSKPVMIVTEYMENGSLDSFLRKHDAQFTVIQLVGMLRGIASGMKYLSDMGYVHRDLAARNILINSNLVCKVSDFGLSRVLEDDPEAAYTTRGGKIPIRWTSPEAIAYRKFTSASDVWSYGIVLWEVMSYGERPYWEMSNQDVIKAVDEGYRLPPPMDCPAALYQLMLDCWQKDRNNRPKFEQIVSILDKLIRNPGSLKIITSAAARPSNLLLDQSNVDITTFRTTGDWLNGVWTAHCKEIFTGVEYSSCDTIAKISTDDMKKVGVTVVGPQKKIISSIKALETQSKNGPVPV

[5] = target: T5, human EPHA5 without signal sequence, FLAG-tagged, expressed from pFLAG-EPHA5 (human, UniProt P54756 56-1037)
T5 construct: not shown: FLAG tag supplied by the vector pFLAG-GW

[6] = target: T6, human EPHA7 without signal sequence, FLAG-tagged, expressed from pFLAG-EPHA7 (human, UniProt Q15375 28-998)
T6 construct: not shown: FLAG tag supplied by the vector pFLAG-GW

Measured: binding result

T6 sequence (Q15375 28-998): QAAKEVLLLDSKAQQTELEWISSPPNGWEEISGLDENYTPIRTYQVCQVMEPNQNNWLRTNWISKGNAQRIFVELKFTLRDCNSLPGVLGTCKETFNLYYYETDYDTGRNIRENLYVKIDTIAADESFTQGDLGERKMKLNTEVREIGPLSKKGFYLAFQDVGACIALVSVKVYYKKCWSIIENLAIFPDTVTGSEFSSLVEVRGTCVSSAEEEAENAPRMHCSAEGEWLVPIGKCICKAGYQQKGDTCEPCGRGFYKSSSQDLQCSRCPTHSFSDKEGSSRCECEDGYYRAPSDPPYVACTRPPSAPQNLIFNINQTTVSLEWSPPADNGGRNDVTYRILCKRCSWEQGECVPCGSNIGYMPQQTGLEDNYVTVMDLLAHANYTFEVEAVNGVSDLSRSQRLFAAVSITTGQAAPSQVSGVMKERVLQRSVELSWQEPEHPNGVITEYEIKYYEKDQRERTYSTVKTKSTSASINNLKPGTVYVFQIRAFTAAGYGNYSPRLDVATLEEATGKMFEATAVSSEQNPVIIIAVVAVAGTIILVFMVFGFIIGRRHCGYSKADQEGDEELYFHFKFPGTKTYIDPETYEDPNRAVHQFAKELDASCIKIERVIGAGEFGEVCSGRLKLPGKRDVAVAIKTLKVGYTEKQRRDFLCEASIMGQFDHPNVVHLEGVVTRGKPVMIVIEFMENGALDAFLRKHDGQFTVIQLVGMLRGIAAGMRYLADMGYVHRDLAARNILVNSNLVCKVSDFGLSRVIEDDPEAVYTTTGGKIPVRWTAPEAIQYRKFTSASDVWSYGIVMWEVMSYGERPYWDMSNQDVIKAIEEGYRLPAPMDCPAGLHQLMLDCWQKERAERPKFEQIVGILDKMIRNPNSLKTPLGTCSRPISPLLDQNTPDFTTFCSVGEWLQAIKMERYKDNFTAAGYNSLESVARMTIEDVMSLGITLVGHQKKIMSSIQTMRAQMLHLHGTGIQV
T5 sequence (P54756 56-1037): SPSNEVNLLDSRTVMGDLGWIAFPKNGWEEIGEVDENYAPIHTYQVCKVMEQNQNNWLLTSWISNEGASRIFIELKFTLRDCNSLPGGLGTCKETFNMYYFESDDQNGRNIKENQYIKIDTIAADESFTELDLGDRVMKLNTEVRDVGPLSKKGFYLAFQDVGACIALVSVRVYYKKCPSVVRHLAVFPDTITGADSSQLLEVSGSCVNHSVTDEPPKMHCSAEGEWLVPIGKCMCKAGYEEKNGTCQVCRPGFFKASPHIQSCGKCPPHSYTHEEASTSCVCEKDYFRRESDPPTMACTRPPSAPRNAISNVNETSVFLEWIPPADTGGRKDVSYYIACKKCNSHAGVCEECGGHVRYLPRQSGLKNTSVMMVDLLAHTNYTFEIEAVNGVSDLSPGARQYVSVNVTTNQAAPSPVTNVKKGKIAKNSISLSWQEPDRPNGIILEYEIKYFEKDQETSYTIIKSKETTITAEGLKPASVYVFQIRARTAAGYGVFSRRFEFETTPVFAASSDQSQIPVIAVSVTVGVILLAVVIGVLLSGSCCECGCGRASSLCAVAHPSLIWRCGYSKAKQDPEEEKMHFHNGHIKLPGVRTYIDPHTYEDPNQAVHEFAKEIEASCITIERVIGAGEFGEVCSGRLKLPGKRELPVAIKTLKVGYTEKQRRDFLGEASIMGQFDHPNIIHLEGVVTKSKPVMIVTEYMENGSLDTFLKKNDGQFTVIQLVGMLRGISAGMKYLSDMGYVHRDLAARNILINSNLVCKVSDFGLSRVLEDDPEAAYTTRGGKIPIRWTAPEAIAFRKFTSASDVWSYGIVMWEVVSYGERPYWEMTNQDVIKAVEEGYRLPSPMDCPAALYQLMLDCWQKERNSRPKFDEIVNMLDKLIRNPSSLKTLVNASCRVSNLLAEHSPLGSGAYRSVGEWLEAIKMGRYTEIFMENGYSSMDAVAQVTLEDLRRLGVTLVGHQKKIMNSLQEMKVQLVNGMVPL
T3 sequence (P10586 other isoform, or with tags, fused parts or gaps): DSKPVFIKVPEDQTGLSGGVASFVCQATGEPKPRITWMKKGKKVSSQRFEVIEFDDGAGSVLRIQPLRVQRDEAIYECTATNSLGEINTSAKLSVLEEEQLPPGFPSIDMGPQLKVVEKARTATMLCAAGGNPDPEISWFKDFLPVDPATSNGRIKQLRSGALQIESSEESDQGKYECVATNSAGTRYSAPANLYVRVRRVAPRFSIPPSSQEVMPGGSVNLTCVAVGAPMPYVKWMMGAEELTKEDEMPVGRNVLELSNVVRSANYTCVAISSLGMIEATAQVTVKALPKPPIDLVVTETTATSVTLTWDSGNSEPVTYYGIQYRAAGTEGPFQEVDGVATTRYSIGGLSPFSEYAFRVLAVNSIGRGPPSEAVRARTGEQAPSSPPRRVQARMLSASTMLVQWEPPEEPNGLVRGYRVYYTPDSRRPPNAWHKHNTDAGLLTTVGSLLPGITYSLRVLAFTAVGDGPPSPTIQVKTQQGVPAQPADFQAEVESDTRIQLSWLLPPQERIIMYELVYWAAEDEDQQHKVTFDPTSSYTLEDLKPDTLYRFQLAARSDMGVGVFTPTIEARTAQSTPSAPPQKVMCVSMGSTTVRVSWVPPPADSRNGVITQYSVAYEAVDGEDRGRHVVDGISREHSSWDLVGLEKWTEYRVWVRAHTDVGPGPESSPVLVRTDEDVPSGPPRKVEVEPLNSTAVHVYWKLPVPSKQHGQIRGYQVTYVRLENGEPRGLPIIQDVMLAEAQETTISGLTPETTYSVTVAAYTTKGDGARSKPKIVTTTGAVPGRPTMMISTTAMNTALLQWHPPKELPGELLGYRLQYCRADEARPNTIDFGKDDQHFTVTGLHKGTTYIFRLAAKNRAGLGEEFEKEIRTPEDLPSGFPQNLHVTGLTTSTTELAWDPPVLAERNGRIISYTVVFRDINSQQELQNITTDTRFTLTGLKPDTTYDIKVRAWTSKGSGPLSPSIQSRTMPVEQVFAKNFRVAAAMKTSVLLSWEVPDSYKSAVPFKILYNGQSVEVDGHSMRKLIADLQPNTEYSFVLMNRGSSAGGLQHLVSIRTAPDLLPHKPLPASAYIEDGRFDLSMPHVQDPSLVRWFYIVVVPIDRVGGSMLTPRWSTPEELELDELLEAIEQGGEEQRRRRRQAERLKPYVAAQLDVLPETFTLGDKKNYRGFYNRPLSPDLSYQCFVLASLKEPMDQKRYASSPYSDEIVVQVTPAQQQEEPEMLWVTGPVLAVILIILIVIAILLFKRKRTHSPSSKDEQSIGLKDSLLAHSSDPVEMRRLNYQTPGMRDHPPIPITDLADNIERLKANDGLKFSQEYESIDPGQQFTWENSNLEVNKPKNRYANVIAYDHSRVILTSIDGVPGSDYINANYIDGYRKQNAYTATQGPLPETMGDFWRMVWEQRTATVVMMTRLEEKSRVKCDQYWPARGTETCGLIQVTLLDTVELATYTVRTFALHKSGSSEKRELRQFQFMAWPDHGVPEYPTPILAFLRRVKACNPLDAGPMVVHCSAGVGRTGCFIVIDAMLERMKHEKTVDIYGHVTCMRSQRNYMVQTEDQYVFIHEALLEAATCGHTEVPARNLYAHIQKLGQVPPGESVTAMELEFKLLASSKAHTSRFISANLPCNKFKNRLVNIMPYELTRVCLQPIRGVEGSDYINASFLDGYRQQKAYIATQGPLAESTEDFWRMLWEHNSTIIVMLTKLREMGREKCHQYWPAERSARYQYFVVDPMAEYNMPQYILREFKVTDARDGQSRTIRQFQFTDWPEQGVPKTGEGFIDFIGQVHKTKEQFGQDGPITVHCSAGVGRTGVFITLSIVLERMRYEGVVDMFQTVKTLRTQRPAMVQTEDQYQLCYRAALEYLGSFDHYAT

B1: mouse anti-human EPHA2 antibody A201 (antibody, V domains shown)
VH: EVQLQQSGAELVKPGASVKLSCTVSGFTFKDTYVHWVKQRPEQGLEWIGRIDPANANTKYDPKFQGKASITADTSSNTAYLQLSSLPSEDTAVYYCAAYGKSAWFAYWGQGTLVTVSA
VL: DIQMTQTTSSLSASLGDRVTISCRASQDIGNYLNWYQQKPDGTVKVLIYYTSRLHSGVPSRFSGSGSGTDYSLTISNLEQEDIATYFCQQGHSLPPTFGGGTKLEIKR
notes: Mouse monoclonal antibody purified from hybridoma supernatant, isotype IgG1; also called A201 antibody
no binding: all assays above

B2: mouse anti-human EPHA2 antibody A205 (antibody, V domains shown)
VH: QIQLVQSGPELKKPGETVKISCKASGYTFTDYSMNWVKQAPGKGLKWMGWINTYTGEPTYADDFKGRFAFSLETSASTAYLQINNLKNEDTATYFCASPISLLRLLDYWGQGTTLTVSS
VL: DVVMTQTPLSLPVSLGDQASIPCRSSQSLVHSNGNTYLHWYLQKPGQSPKLLIYKVSNRFSGVPDRFSGSGSGTDFTLKISRVEAEDLGVYFCSQSTHVPWTFGGGTKLEIKR
notes: Mouse monoclonal antibody purified from hybridoma supernatant, isotype IgG2b; also called A205 antibody
no binding: all assays above
